# Measurements published in the supplement of paper PMC9112550, “Optimization of the antimicrobial peptide Bac7 by deep mutational scanning” (BMC Biology, 2022).
# System: Escherichia coli TOP10
# Assay: shrunken log2 fold change of peptide-encoding DNA abundance (4.5 h post-induction vs induction); higher = less antimicrobial activity (less host growth inhibition)
# Settings: time post-induction: 4.5 h; library: site-saturation at positions 5, 18, 19, 20
# 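Also: peptides expressed intracellularly from a pBAD plasmid library in pooled LB shake-flask culture, induced with 0.3% L-arabinose, DNA abundance read by NGS, three biological replicates, DESeq2 with apeglm shrinkage.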
row,Sequence,shrunken log2 fold change
1,RRIRGRPPRLPRPRPRPTDYPRP,-0.00915
2,RRIRWRPPRLPRPRPRPRFNPRP,0.0235
3,RRIRCRPPRLPRPRPRPPKQPRP,0.123
4,RRIRERPPRLPRPRPRPFRRPRP,0.0491
5,RRIRDRPPRLPRPRPRPELMPRP,1.68
6,RRIRWRPPRLPRPRPRPMVLPRP,-0.243
7,RRIRVRPPRLPRPRPRPFPFPRP,-0.199
8,RRIRIRPPRLPRPRPRPRYSPRP,-0.484
9,RRIRGRPPRLPRPRPRPVMFPRP,0.451
10,RRIRIRPPRLPRPRPRPQALPRP,-0.0788
11,RRIRTRPPRLPRPRPRPKILPRP,-0.0614
12,RRIRTRPPRLPRPRPRPTQVPRP,0.131
13,RRIRARPPRLPRPRPRPRKKPRP,0.404
14,RRIRIRPPRLPRPRPRPHGMPRP,0.0429
15,RRIRCRPPRLPRPRPRPASLPRP,-0.234
16,RRIRHRPPRLPRPRPRPTTMPRP,-0.261
17,RRIRERPPRLPRPRPRPWRFPRP,-0.117
18,RRIRTRPPRLPRPRPRPVVQPRP,-0.062
19,RRIRCRPPRLPRPRPRPVSFPRP,-0.228
20,RRIRERPPRLPRPRPRPSWSPRP,-0.0285
21,RRIRPRPPRLPRPRPRPGSPPRP,0.0761
22,RRIRSRPPRLPRPRPRPDINPRP,-0.253
23,RRIRSRPPRLPRPRPRPWDIPRP,-0.211
24,RRIRDRPPRLPRPRPRPMLIPRP,-0.0943
25,RRIRLRPPRLPRPRPRPTSEPRP,-0.0829

row,Sequence,shrunken log2 fold change
1,RRIRPRPPRLPRPRPRPYIKPRP,-0.939
2,RRIRWRPPRLPRPRPRPQCKPRP,0.132
3,RRIRIRPPRLPRPRPRPMWDPRP,0.205
4,RRIRRRPPRLPRPRPRPMQTPRP,-0.00191
5,RRIRKRPPRLPRPRPRPSYLPRP,-0.144
6,RRIRTRPPRLPRPRPRPNQNPRP,-0.168
7,RRIRIRPPRLPRPRPRPMCYPRP,-1
8,RRIRARPPRLPRPRPRPHLQPRP,0.439
9,RRIRGRPPRLPRPRPRPMAEPRP,1.73
10,RRIRMRPPRLPRPRPRPSIVPRP,-0.106
11,RRIRIRPPRLPRPRPRPEKVPRP,-0.13
12,RRIRLRPPRLPRPRPRPIEHPRP,-0.31
13,RRIRSRPPRLPRPRPRPEFVPRP,0.00503
14,RRIRSRPPRLPRPRPRPPQEPRP,0.295
15,RRIRWRPPRLPRPRPRPYKFPRP,-0.22
16,RRIRERPPRLPRPRPRPRWAPRP,0.425
17,RRIRDRPPRLPRPRPRPWYLPRP,-0.11
18,RRIRARPPRLPRPRPRPRNTPRP,0.146
19,RRIRERPPRLPRPRPRPRKQPRP,0.00709
20,RRIRCRPPRLPRPRPRPCNSPRP,-0.0476
21,RRIRQRPPRLPRPRPRPAAMPRP,0.248
22,RRIRDRPPRLPRPRPRPNIDPRP,0.068
23,RRIRCRPPRLPRPRPRPLPIPRP,-0.0776
24,RRIRIRPPRLPRPRPRPDEKPRP,-0.0762
25,RRIRWRPPRLPRPRPRPSEVPRP,-0.0251

row,Sequence,shrunken log2 fold change
1,RRIRGRPPRLPRPRPRPLPEPRP,0.884
2,RRIRPRPPRLPRPRPRPQYRPRP,-0.105
3,RRIRARPPRLPRPRPRPFMEPRP,0.0746
4,RRIRGRPPRLPRPRPRPDKFPRP,0.0879
5,RRIRVRPPRLPRPRPRPNYQPRP,-0.699
6,RRIRFRPPRLPRPRPRPDIYPRP,-0.0949
7,RRIRERPPRLPRPRPRPPHQPRP,-0.0506
8,RRIRCRPPRLPRPRPRPCMMPRP,-0.914
9,RRIRGRPPRLPRPRPRPVGFPRP,0.984
10,RRIRQRPPRLPRPRPRPQFPPRP,-0.202
11,RRIRDRPPRLPRPRPRPSTSPRP,-0.115
12,RRIRLRPPRLPRPRPRPMESPRP,-0.0323
13,RRIRARPPRLPRPRPRPWRGPRP,0.39
14,RRIRMRPPRLPRPRPRPYKTPRP,0.0261
15,RRIRVRPPRLPRPRPRPSFAPRP,0.0593
16,RRIRLRPPRLPRPRPRPWPAPRP,0.0194
17,RRIRVRPPRLPRPRPRPFITPRP,-0.334
18,RRIRLRPPRLPRPRPRPCTDPRP,-0.199
19,RRIRCRPPRLPRPRPRPIFNPRP,-0.542
20,RRIRLRPPRLPRPRPRPRQTPRP,1.27
21,RRIRWRPPRLPRPRPRPQAFPRP,0.0509
22,RRIRRRPPRLPRPRPRPKTWPRP,-0.0361
23,RRIRARPPRLPRPRPRPEQHPRP,0.562
24,RRIRYRPPRLPRPRPRPMQIPRP,-6.27e-05
25,RRIRQRPPRLPRPRPRPCIYPRP,-0.204
